Data as given in patent publication US20240025971A1 (ATRECA, published 2024).

Legend:
SARS-CoV-2 S2 protein = biological target: T1, SARS-CoV-2 S2 protein (SARS-CoV-2, UniProt P0DTC2 686-1213); assay: BLI
T1 construct: domain: S2 protein; also called S2 monomer

[1] = biological target: SARS-CoV-2 Nucleocapsid (N) protein (SARS-CoV-2, UniProt P0DTC9 1-419); assay: BLI
[2] = biological target: T2, SARS-CoV-2 Spike (S) trimer (SARS-CoV-2, UniProt P0DTC2 14-1208); assay: ELISA, S trimer coated, 1:50 dilution
T2 construct: also called Spike trimer

[3] = biological target: T3, SARS-CoV-2 Envelope (E) protein (SARS-CoV-2, UniProt P0DTC4 1-75); assay: ELISA
[4] = biological target: T4, SARS-CoV-2 Receptor Binding Domain (RBD) (SARS-CoV-2, UniProt P0DTC2 319-541); assay: BLI
T4 construct: also called RBD protein

SARS-CoV-2 S1 protein = biological target: T5, SARS-CoV-2 S1 protein (SARS-CoV-2, UniProt P0DTC2 16-685); assay: BLI
T5 construct: domain: S1 protein; also called S1 monomer

[5] = biological target: T2, SARS-CoV-2 Spike (S) trimer; assay: ELISA
[6] = biological target: T3, SARS-CoV-2 Envelope (E) protein; assay: ELISA, Envelope protein
[7] = biological target: SARS-CoV-2 Wuhan-1 full-length Spike protein (SARS-CoV-2, UniProt P0DTC2 14-1273); assay: cell-based or functional assay
[8] = biological target: SARS-CoV-1 spike (pseudovirus) (SARS-CoV-1, UniProt P59594 14-1255); assay: cell-based or functional assay
[9] = biological target: SARS-CoV-2 Spike (S) trimer (SARS-CoV-2, UniProt P0DTC2 14-1208); assay: ELISA, S trimer coated, 1:50 dilution

Row | Binder | binding result (SARS-CoV-2 S2 protein) | binding result [1] | Optical Density (OD; 450 nm) [2] | binding result [3] | binding result [4] | binding result (SARS-CoV-2 S1 protein) | binding result [5] | Optical Density (OD; 450 nm) [6] | Pseudovirus Neutralization [7] | Pseudovirus Neutralization [8] | Optical Density (OD; 450 nm) [9]
1 | AB-009666 (antibody, V domains shown, human IgG1) VH: EVQLVESGGGLVQPGGSLRLSCAASGFTFSSYDMHWVRQATGKGLEWVSTIGTAGDTYYPGSVKGRFTISRENAKNSLYLQMNSLRAEDTAVYYCARVNYDSSGYPTYWYFDLWGRGTLVTVSS VL: DIQMTQSPSSLSASVGDRVTITCRASQSISRYLNWYQQKPGKAPKLLIYAASSLQSGVPSRFSGSGSGTDFTLTISSLQPEDFATYNCQQSYSSPPWTFGQGTKVEIK | no binding (tested: 300 nM) | no binding (tested: 300 nM) | 2.76 OD450 | no binding (tested: 2-fold over hIgG1 background) | – | – | – | – | – | – | –
2 | AB-009190 (antibody, V domains shown, human IgG1) VH: QVQLVESGGGVVQPGRSLRLSCAASGFTFSSYAMHWVRQAPGKGLEWVAVISYDGSNKYYADSVKGRFTISRDNSKNTLYLQMNSLRAEDTAVYYCARLNGDAYYYYGMDVWGQGTTVTVSS VL: not shown | no binding (tested: 300 nM) | – | – | – | no binding (tested: 300 nM) | no binding (tested: 300 nM) | no binding (tested: 2-fold over hIgG1 background) | 0.469 OD450 | – | – | –
3 | AB-009271 (antibody, V domains shown, human IgG1) VH: EVQLVESGGGLIQPGGSLRLSCAASGFIVSSNYMSWVRQAPGKGLEWVSVIYSGGSTYYADSVKGRFTISRDNSKNTLYLQMNSLRAEDTAVYYCARDYGDFYFDYWGQGTLVTVSS VL: EIVMTQSPATLSVSPGERATLSCRASQSVSSNLAWYQQKPGQAPRLLIYGASTRATGIPARFSGSGSGTEFTLTISSLQSEDFAVYYCQQYYNWPRTFGQGTKVEIK | no binding (tested: 300 nM) | no binding (tested: 300 nM) | 2.94 OD450 | no binding (tested: 2-fold over hIgG1 background) | – | – | – | – | 0.058 µg/mL | > 50 µg/mL | –
4 | AB-009613 (antibody, V domains shown, human IgG1) VH: EVQLVESGGGLIQPGGSLRLSCAASGFTVSSNYMSWVRQAPGKGLEWVSVIYSGGSTYYADSVKGRFTISRDNSKNTLYLQMNSLRAEDTAVYYCARDYGDFYFDYWGQGTLVTVSS VL: not shown | no binding (tested: 300 nM) | no binding (tested: 300 nM) | 2.47 OD450 | no binding (tested: 2-fold over hIgG1 background) | – | – | – | – | 1.53 µg/mL | > 50 µg/mL | –
5 | AB-009634 (antibody, V domains shown) VH: QVTLKESGPALVKPTQTLTLTCTFSGFSLSTSGMRVSWIRQPPGKALEWLARIDWDDDKFYSTSLKTRLTISKDTSKNQVVLTMTNMDPVDTATYYCARYYYYGMDVWGQGTTVTVSS VL: not shown | – | – | – | – | – | – | – | – | – | – | 2.46 OD450
6 | AB-009610 (antibody, V domains shown, human IgG1) VH: QVQLVQSGAEVKKPGSSVKVSCKASGGTFSNYAISWVRQAPGQGLEWMGRIIPILGIANYAQKFQGRVTITADKSTSTAYMELSSLRSEDTAVYYCATTPYYYDSSGYYLDYWGQGTLVTVSS VL: not shown | no binding (tested: 300 nM) | no binding (tested: 300 nM) | 2.02 OD450 | no binding (tested: 2-fold over hIgG1 background) | – | – | – | – | 6.77 µg/mL | > 50 µg/mL | –
7 | AB-009213 (antibody, V domains shown, human IgG1) VH: EVQLVESGGGLVKPGGSLRLSCAASGFTFSSYSMNWVRQAPGKGLEWVSSISSSSSYIYYADSVKGRFTISRDNAKNSLYLQMNSLRAEDTAVYYCARDKLREDGDYDDAFDIWGQGTMVTVSS VL: not shown | no binding (tested: 300 nM) | – | – | – | no binding (tested: 300 nM) | no binding (tested: 300 nM) | no binding (tested: 2-fold over hIgG1 background) | – | – | – | –
8 | AB-009627 (antibody, V domains shown, human IgG1) VH: QVQLQQWGAGLLKPSETLSLTCAVYGGSFSGYYWSWIRQPPGKGLEWIGEINHSGSTNYNPSLKSRVTISVDTSKNQFSLKLSSVTAADTAVFYCARGGYSSSWYGEKYWFDPWGQGTLVTVSS VL: QSALTQPRSVSGSPGQSVTISCTGTSSDVGGYNYVSWYQQHPGKAPKLMIYDVSKRPSGVPDRFSGSKSGNTASLTISGLQAEDEADYYCCSYAGSPYVFGTGTKVTVL | – | no binding (tested: 300 nM) | – | no binding (tested: 2-fold over hIgG1 background) | – | no binding (tested: 300 nM) | – | – | – | – | –
